Test results: US12365732 (23ANDME, dated 2025)

T1: hu-CD96 isoform 1 on HEK293T cells (human, UniProt P40200 22-585)
T1 construct: Origene RC213845, transient expression; also called HEK293T-CD96 (iso1)
T1 sequence: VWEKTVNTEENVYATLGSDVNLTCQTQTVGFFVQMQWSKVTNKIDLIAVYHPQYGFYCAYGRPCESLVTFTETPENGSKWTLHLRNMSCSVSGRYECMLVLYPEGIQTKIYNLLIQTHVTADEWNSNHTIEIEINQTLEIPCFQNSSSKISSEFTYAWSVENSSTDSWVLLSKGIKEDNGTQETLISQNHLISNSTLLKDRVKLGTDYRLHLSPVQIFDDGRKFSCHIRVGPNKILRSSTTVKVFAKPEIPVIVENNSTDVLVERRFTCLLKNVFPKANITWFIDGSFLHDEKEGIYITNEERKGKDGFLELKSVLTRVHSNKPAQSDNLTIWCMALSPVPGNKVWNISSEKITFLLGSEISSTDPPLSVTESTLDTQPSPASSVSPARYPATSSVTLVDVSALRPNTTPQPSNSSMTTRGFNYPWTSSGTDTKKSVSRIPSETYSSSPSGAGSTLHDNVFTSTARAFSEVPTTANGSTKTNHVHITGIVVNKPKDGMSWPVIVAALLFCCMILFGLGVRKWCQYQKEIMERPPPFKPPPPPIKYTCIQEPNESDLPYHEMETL

T2: hu-CD96 isoform 2 on CHO cells (human, UniProt P40200 22-585)
T2 construct: also called CHO-CD96 (isoform 2); CD96-CHOs
T2 sequence: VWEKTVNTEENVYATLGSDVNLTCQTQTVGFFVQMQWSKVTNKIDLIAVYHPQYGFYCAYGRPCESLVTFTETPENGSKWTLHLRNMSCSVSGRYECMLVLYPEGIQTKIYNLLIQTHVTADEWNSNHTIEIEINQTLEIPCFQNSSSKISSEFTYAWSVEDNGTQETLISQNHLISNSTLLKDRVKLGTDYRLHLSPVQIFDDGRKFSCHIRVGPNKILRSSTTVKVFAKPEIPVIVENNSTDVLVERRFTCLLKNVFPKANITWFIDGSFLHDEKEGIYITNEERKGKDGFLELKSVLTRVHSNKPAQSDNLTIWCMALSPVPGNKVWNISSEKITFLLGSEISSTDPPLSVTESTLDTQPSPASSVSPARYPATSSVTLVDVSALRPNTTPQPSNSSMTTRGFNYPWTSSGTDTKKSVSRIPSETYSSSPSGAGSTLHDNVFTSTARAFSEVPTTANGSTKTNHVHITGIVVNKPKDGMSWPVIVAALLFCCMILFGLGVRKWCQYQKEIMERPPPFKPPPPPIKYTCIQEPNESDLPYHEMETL


What was measured:
[1] = target: T1, hu-CD96 isoform 1 on HEK293T cells; assay: FACS, Ab 0.4 nM
Protocol: (§1) Isoform 1 of hu-CD96 (Origene, catalog #RC213845) was transiently expressed in HEK293T cells following standard lipofectamine or Fugene transfection protocol. […] Cells were washed, and binding was detected by incubation with anti-mouse IgG-FITC (Biolegend, catalog #406001) for 20 minutes at 4° C. Cell binding was analyzed by flow cytometry with a CytoFLEX (Beckman Coulter). Binding curves were calculated as a percentage of cells positive for bound antibody.

[2] = target: T2, hu-CD96 isoform 2 on CHO cells; assay: FACS, Ab 0.4 nM
Protocol: as §1
Isoform 2 of hu-CD96 (DNA construct: Origene, catalog #RC221005) was expressed on a single-cell-clone-derived CHO stable cell line. Binding of the anti-CD96 antibodies to the CHO cells were determined as described above with isoform 1 of hu-CD96.

[3] = target: T3, cy-CD96 Fc (cynomolgus monkey, biotinylated in Table 16); assay: SPR 25C, CD96-Fc on Protein A, Fab analyte
T3 construct: also called biotinylated cy-CD96-Fc
T3 sequence (chain, as listed by the source): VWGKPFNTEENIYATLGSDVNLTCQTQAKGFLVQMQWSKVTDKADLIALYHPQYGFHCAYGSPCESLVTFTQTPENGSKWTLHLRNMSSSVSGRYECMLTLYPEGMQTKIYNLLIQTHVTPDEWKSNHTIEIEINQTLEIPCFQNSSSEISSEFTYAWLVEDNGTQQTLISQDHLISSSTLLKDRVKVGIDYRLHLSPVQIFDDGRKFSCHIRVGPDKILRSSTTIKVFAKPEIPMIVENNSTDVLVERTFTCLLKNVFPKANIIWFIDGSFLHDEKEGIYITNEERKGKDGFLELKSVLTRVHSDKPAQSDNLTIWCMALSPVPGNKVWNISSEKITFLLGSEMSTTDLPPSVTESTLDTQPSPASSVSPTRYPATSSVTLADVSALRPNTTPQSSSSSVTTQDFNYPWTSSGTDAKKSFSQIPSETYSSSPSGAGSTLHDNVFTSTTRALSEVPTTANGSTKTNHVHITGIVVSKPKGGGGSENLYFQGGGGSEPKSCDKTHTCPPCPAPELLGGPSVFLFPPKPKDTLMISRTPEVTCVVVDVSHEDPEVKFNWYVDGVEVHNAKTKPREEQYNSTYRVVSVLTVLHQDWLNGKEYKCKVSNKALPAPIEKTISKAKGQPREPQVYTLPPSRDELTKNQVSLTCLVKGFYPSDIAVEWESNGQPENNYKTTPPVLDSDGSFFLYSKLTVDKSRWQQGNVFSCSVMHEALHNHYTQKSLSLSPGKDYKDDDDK
Protocol: Briefly, hu-CD96 Fc and cy-CD96 Fc were diluted at 10 µg/mL in HBS-P buffer (0.01 M HEPES pH 7.4, 0.15 M NaCl, 0.005% Surfactant P20) and applied to the Protein A chip at 30 µL/min flow rate for 60 s in flow cell 2 (FC2). Then flow 3-fold serial dilutions of mAb1.v7 Fab variants in HBS-P buffer (0.01 M HEPES pH 7.4, 0.15 M NaCl, 0.005% surfactant P20) from (0.4 nM) to high (1000 nM) were injected (flow rate: 30 µL/min) at 25° C. to both flow cell 1 (FC1) and flow cell 2 (FC2). The sensorgram was recorded and subject to reference and buffer subtraction before evaluating by BIA- CORE® 8K Evaluation Software (version 1.1.1.7442). Association rates ($kon$) and dissociation rates ($koff$) were calculated using a simple one-to-one Langmuir binding model. The equilibrium dissociation constant (K_D) was calculated as the ratio of $koff/kon$, and the values determined for the mAb1.v7 and the 5 Fab variants are summarized in Table 10 (below).

Binder	% positive [1] [%]	% positive [2] [%]	Kd [3] [nM]	koff [3] [s⁻¹]	kon [3] [M⁻¹ s⁻¹]
10G1 (clone 10G1.3G8), purified hybridoma antibody (antibody, V domains shown, murine hybridoma IgG) VH: QIQLVQSGPELKKPGETVKISCKASGYPFTTYGMSWVKQAPGKGLKWMGWINTDSGVPTYADDFKGRFAFSLETSANTAYLQINSLKNEDAATYFCARNIYYGWGNFDYWGQGTILTVSS VL: DILMTQSPTTLSVTPGETVSLSCRASQDIYRNLHWYQQKSQGTPRLLIKHASDSISGIPSRFTGSGSGTDFTLSINSVKPEDEGIYYCLQGYSMPYTFGGGTKLEIK	34.6	25			
mAb1.v7.2 Fab (Fab, V domains shown, also called M34R/P52aF/T97V) VH: EVQLVQSGAEVKKPGASVKVSCKASGFTFTNNWRHWVRQAPGQGLEWIGMIHFNSGITNINEKFKNRVTMTTDTSTSTAYMELRSLRSEDTAVYYCRSDGVYEGYFDYWGQGTLVTVSS VL: DIQLTQSPSSLSASVGDRVTITCKASQNVGTAIVWYQQKPGKAPKVLIYSASTRYTGVPSRFSGSGSGTDFTLTISSLQPEDFATYYCQQYSSSPLTFGQGTKVEIK			9.24	0.00024	26000
mAb1.v7.70 Fab (Fab, V domains shown, also called N32R/P52aA/T97V) VH: EVQLVQSGAEVKKPGASVKVSCKASGFTFTNRWMHWVRQAPGQGLEWIGMIHANSGITNINEKFKNRVTMTTDTSTSTAYMELRSLRSEDTAVYYCRSDGVYEGYFDYWGQGTLVTVSS VL: DIQLTQSPSSLSASVGDRVTITCKASQNVGTAIVWYQQKPGKAPKVLIYSASTRYTGVPSRFSGSGSGTDFTLTISSLQPEDFATYYCQQYSSSPLTFGQGTKVEIK			5	0.000189	37200
mAb1.v7.16 Fab (Fab, V domains shown, also called M34R/T97V) VH: EVQLVQSGAEVKKPGASVKVSCKASGFTFTNNWRHWVRQAPGQGLEWIGMIHPNSGITNINEKFKNRVTMTTDTSTSTAYMELRSLRSEDTAVYYCRSDGVYEGYFDYWGQGTLVTVSS VL: DIQLTQSPSSLSASVGDRVTITCKASQNVGTAIVWYQQKPGKAPKVLIYSASTRYTGVPSRFSGSGSGTDFTLTISSLQPEDFATYYCQQYSSSPLTFGQGTKVEIK			94	0.000972	10400
mAb1.v7 IgG (humanized 12F8) (antibody, V domains shown, human IgG1 N297G) VH: EVQLVQSGAEVKKPGASVKVSCKASGFTFTNNWMHWVRQAPGQGLEWIGMIHPNSGITNINEKFKNRVTMTTDTSTSTAYMELRSLRSEDTAVYYCRSDGTYEGYFDYWGQGTLVTVSS VL: DIQLTQSPSSLSASVGDRVTITCKASQNVGTAIVWYQQKPGKAPKVLIYSASTRYTGVPSRFSGSGSGTDFTLTISSLQPEDFATYYCQQYSSSPLTFGQGTKVEIKG	12.2	17.7			
mAb1.v7.48 Fab (Fab, V domains shown, also called N32R/P52aH/T97V) VH: EVQLVQSGAEVKKPGASVKVSCKASGFTFTNRWMHWVRQAPGQGLEWIGMIHHNSGITNINEKFKNRVTMTTDTSTSTAYMELRSLRSEDTAVYYCRSDGVYEGYFDYWGQGTLVTVSS VL: DIQLTQSPSSLSASVGDRVTITCKASQNVGTAIVWYQQKPGKAPKVLIYSASTRYTGVPSRFSGSGSGTDFTLTISSLQPEDFATYYCQQYSSSPLTFGQGTKVEIK			8.9	0.000328	36600
mAb1.v7.9 Fab (Fab, V domains shown, also called M34R/P52aM/T97V) VH: EVQLVQSGAEVKKPGASVKVSCKASGFTFTNNWRHWVRQAPGQGLEWIGMIHMNSGITNINEKFKNRVTMTTDTSTSTAYMELRSLRSEDTAVYYCRSDGVYEGYFDYWGQGTLVTVSS VL: DIQLTQSPSSLSASVGDRVTITCKASQNVGTAIVWYQQKPGKAPKVLIYSASTRYTGVPSRFSGSGSGTDFTLTISSLQPEDFATYYCQQYSSSPLTFGQGTKVEIK			22	0.000802	36400
9H4, purified hybridoma antibody (antibody, V domains shown, murine hybridoma IgG) VH: EVQLLETGGGLVKSGGSLKLSCAASGFTFSDYYMYWVRQTPEKRLEWVAAISDDGTYTYYPDSVKGRFTISRDNANNYLYLQMSSLKSEDTAIYYCAKAGSYDYFDVWGAGTTVTVSS VL: DIVLTQSPASLAVSLGQRAIISCKASQSVTFADTGLMHWYQQKPGQQPKLLIYRASNLEVGVPTRFSGSGSGTDFTLNIHPVEEEDVATYYCQQSREYPWTFGGGTKLEIK	13.9	24.1			
7E5, purified hybridoma antibody (antibody, V domains shown, murine hybridoma IgG) VH: QVQLKESGPGLVAPSQSLSIICTVSGFSLTNYGIHWIRQPPGKGLEWLGIIWAGGSTNYNSALMSRLTISKDNSKSQVFLKMNSLQTNDTAIYYCARVSMMGFAYWGQGTLVTVSA VL: QAVVTQESALTTSPGETVTLTCRSSTGAVTTSNYANWVQEKPDHLFTGLIGGTNNRAPGVPARFSGSLIGDKAALTITGAQTEDEAIYFCSLWYGSHWVFGGGTKLTVL	20.4	44.1			
